Measured values: the RNAGym collection of RNA variant scans (doi:10.1073/pnas.2313332121)

B1: TPR t1 (parent)
chain: GACCAAUCUGCCCUCAGAGCUCGAGAACAUCUUCGGAUGCAGAGGAGGCAGGCUUCGGUGGCGCGAUAGCGCCAACGUCCUCAACCUCCAAUGCAUCCCACCACAUGAUGAUGCCUGAAGAGCCUUGGUUUUUUG

Variants of: B1
Assay: polymerase ribozyme fitness, log enrichment relative to wild type (log ratio); higher = more active; in vitro selection for triplet polymerase activity
Summary of the method: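 Both subunits of a heterodimeric triplet polymerase ribozyme were given their own mutant library, built by PCR and transcribed. Each library was annealed with a biotinylated primer, the partner subunit and triplets, incubated frozen at −7 °C, and its extended constructs gel-excised, captured on streptavidin beads and amplified by RT-PCR, all in one round done in triplicate. Fitness is the logarithm of genotype enrichment relative to wild-type enrichment, with replicates averaged by inverse-variance weighting. That logarithm is base 2, and Illumina-sequenced genotypes needed ≥10 input reads and ≥1 read per output.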

Q: Which “polymerase ribozyme fitness (log ratio)” value does the source give for A18U G60A here?
A: -2.24

Q: With C11U C22U U38C as the variant, how does the “polymerase ribozyme fitness (log ratio)” value read?
A: -4.76

Q: For A29U G44U G60A G113U A118G U131G, which “polymerase ribozyme fitness (log ratio)” value is on record?
A: -5.8

Q: Which “polymerase ribozyme fitness (log ratio)” value does the source give for G17U G69U A84C here?
A: 0.342

Q: Which “polymerase ribozyme fitness (log ratio)” value does the source give for A2U C98U here?
A: -3.18

Q: With C82A C102A as the variant, how does the “polymerase ribozyme fitness (log ratio)” value read?
A: -2.33

Q: For C40G C102A, which “polymerase ribozyme fitness (log ratio)” value is on record?
A: -3.26

Q: With G44U G47A G63C G120U U130G as the variant, how does the “polymerase ribozyme fitness (log ratio)” value read?
A: -4.01

Q: For A27U C73A U129C, which “polymerase ribozyme fitness (log ratio)” value is on record?
A: -3.27

Q: With C56U G128C as the variant, how does the “polymerase ribozyme fitness (log ratio)” value read?
A: -2.63

Q: With C49U C98U as the variant, how does the “polymerase ribozyme fitness (log ratio)” value read?
A: -2.16

Q: With C15U G36C U54C C85A G117U G127C as the variant, how does the “polymerase ribozyme fitness (log ratio)” value read?
A: -5.33

Q: For C11G C62A, which “polymerase ribozyme fitness (log ratio)” value is on record?
A: -0.516

Q: Which “polymerase ribozyme fitness (log ratio)” value does the source give for C8U C34G here?
A: -5.47

Q: Which “polymerase ribozyme fitness (log ratio)” value does the source give for G48A U67C here?
A: -3.66

Q: Which “polymerase ribozyme fitness (log ratio)” value does the source give for G39A C124A here?
A: 1.38

Q: For C11G C28G G60A A68C U81A U106C G127C, which “polymerase ribozyme fitness (log ratio)” value is on record?
A: -6.42

Q: For G60U C114A, which “polymerase ribozyme fitness (log ratio)” value is on record?
A: -1.45

Q: Which “polymerase ribozyme fitness (log ratio)” value does the source give for G69A U131G here?
A: -3.12

Q: Which “polymerase ribozyme fitness (log ratio)” value does the source give for A43U C124A here?
A: 0.127

Q: For A16G U112A A119G, which “polymerase ribozyme fitness (log ratio)” value is on record?
A: 2.06

Q: For G117C G127A, which “polymerase ribozyme fitness (log ratio)” value is on record?
A: -6.44

Q: For C11A G93C, which “polymerase ribozyme fitness (log ratio)” value is on record?
A: -1.54

Q: Which “polymerase ribozyme fitness (log ratio)” value does the source give for C72A C85U A90C here?
A: -1.5

Q: With U9C C11U U78C C82G A83U as the variant, how does the “polymerase ribozyme fitness (log ratio)” value read?
A: -0.241

Q: Which “polymerase ribozyme fitness (log ratio)” value does the source give for G44U G48U G57C C104A here?
A: -3.32

Q: Which “polymerase ribozyme fitness (log ratio)” value does the source give for G110A A119C here?
A: -2.25

Q: Which “polymerase ribozyme fitness (log ratio)” value does the source give for C64U G110U here?
A: -0.774

Q: Which “polymerase ribozyme fitness (log ratio)” value does the source give for G63U C70U here?
A: -0.91

Q: For A43C C56U C94A G117A, which “polymerase ribozyme fitness (log ratio)” value is on record?
A: -5.97

Q: Which “polymerase ribozyme fitness (log ratio)” value does the source give for C22G C64U here?
A: -2.83

Q: With A6U A50C as the variant, how does the “polymerase ribozyme fitness (log ratio)” value read?
A: 0.0675

Q: For C49U C72U C94G, which “polymerase ribozyme fitness (log ratio)” value is on record?
A: -1.72

Q: For A50C G58C C98U C123G, which “polymerase ribozyme fitness (log ratio)” value is on record?
A: 0.72

Q: Which “polymerase ribozyme fitness (log ratio)” value does the source give for A26G C82A G113A A119U G120C here?
A: -3.14

Q: With A2C A6C C8A G71A A84U U129A as the variant, how does the “polymerase ribozyme fitness (log ratio)” value read?
A: -2.03

Q: For G36A U96G, which “polymerase ribozyme fitness (log ratio)” value is on record?
A: -1.67

Q: Which “polymerase ribozyme fitness (log ratio)” value does the source give for C3U C20A G57A G60U G117A here?
A: -4.91

Q: For A6U C15G U59G, which “polymerase ribozyme fitness (log ratio)” value is on record?
A: -2.42

Q: Which “polymerase ribozyme fitness (log ratio)” value does the source give for G52U C76A A105U here?
A: -3.02

Q: For C64U U96C, which “polymerase ribozyme fitness (log ratio)” value is on record?
A: -0.0442

Q: For A6C G52U C70G A74U G120C, which “polymerase ribozyme fitness (log ratio)” value is on record?
A: -5.83

Q: With C56A C73U C124A as the variant, how does the “polymerase ribozyme fitness (log ratio)” value read?
A: 1.29

Q: For G39U C79U, which “polymerase ribozyme fitness (log ratio)” value is on record?
A: -0.704

Q: For G61U U129G, which “polymerase ribozyme fitness (log ratio)” value is on record?
A: -1.79

Q: Which “polymerase ribozyme fitness (log ratio)” value does the source give for A43U G77C U78A C79U G120U U131C here?
A: -1.51

Q: With U7G C49U C80U A111C as the variant, how does the “polymerase ribozyme fitness (log ratio)” value read?
A: -4.73

Q: For G17A C72U, which “polymerase ribozyme fitness (log ratio)” value is on record?
A: -2.29

Q: Which “polymerase ribozyme fitness (log ratio)” value does the source give for C11G G39A C49G C53U G69A A75U G120C here?
A: -2.05

Q: Which “polymerase ribozyme fitness (log ratio)” value does the source give for G65A C114G here?
A: -7.73

Q: For C22G C73G U133G, which “polymerase ribozyme fitness (log ratio)” value is on record?
A: -4.48

Q: Which “polymerase ribozyme fitness (log ratio)” value does the source give for C28U C72G G110C here?
A: -1.52

Q: For A6U G135U, which “polymerase ribozyme fitness (log ratio)” value is on record?
A: -0.769

Q: With G48C C49G as the variant, how does the “polymerase ribozyme fitness (log ratio)” value read?
A: -0.655

Q: Which “polymerase ribozyme fitness (log ratio)” value does the source give for U9G C88U G93C here?
A: -0.642

Q: For A26G C53A C56U G93C U96G, which “polymerase ribozyme fitness (log ratio)” value is on record?
A: -4.22

Q: Which “polymerase ribozyme fitness (log ratio)” value does the source give for C56U A66C U78A here?
A: -2.84

Q: For A27G C49A U78C, which “polymerase ribozyme fitness (log ratio)” value is on record?
A: -2.36

Q: Which “polymerase ribozyme fitness (log ratio)” value does the source give for A2U C13U A41G A43U C49U U92C G93C C115U U131G U132A here?
A: -4.38

Q: With C22G C70U as the variant, how does the “polymerase ribozyme fitness (log ratio)” value read?
A: -3.87

Q: For G52U G69C C73A, which “polymerase ribozyme fitness (log ratio)” value is on record?
A: -2.55

Q: Which “polymerase ribozyme fitness (log ratio)” value does the source give for C56U G61U here?
A: -2.88

Q: Which “polymerase ribozyme fitness (log ratio)” value does the source give for C56G G57U C101G A111C here?
A: -1.77

Q: Which “polymerase ribozyme fitness (log ratio)” value does the source give for G48U U78C here?
A: -1.27

Q: For C12G A46G G48A C79A, which “polymerase ribozyme fitness (log ratio)” value is on record?
A: -2.27

Q: With C13G A37U as the variant, how does the “polymerase ribozyme fitness (log ratio)” value read?
A: -1.57

Q: With C62G G93U as the variant, how does the “polymerase ribozyme fitness (log ratio)” value read?
A: -2.74

Q: With C3U as the variant, how does the “polymerase ribozyme fitness (log ratio)” value read?
A: -0.284

Q: For C82U C88A, which “polymerase ribozyme fitness (log ratio)” value is on record?
A: -0.557

Q: Which “polymerase ribozyme fitness (log ratio)” value does the source give for A6G C79U C88G C104U here?
A: -1.13

Q: For C20A C49A G63U, which “polymerase ribozyme fitness (log ratio)” value is on record?
A: -4.62

Q: With G110A G122U as the variant, how does the “polymerase ribozyme fitness (log ratio)” value read?
A: -1.41

Q: For A6C G57C C72U, which “polymerase ribozyme fitness (log ratio)” value is on record?
A: -0.529

Q: Which “polymerase ribozyme fitness (log ratio)” value does the source give for G120U U131A here?
A: -1.19

Q: For C12G C40U, which “polymerase ribozyme fitness (log ratio)” value is on record?
A: -1.51

Q: For C8G A46U A91U G117C, which “polymerase ribozyme fitness (log ratio)” value is on record?
A: -2.28

Q: For U9A C13G A37G C82G U116C U125A, which “polymerase ribozyme fitness (log ratio)” value is on record?
A: -4.1

Q: Which “polymerase ribozyme fitness (log ratio)” value does the source give for A2C G42A A46G G69U C115G here?
A: -4.92

Q: Which “polymerase ribozyme fitness (log ratio)” value does the source give for C11A A74G here?
A: -1.56

Q: With C15A C49A C86A A95U G110A C123A as the variant, how does the “polymerase ribozyme fitness (log ratio)” value read?
A: -5.76

Q: Which “polymerase ribozyme fitness (log ratio)” value does the source give for C22G G110U U112G here?
A: -7.26

Q: For G44A C56U C72U, which “polymerase ribozyme fitness (log ratio)” value is on record?
A: -2.35

Q: With C70A G113C as the variant, how does the “polymerase ribozyme fitness (log ratio)” value read?
A: -3.23

Q: For C72A C123U, which “polymerase ribozyme fitness (log ratio)” value is on record?
A: 1.5
